± gives the uncertainty stated by the source.
Experiment: amyloid nucleation score (Sup35N fusion, yeast selection) (log enrichment); library NNK1; higher = more nucleation; inactive = no reads after selection
Summary of the method: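 The nucleation score is the log enrichment of output over input reads, calculated with DiMSum and centred on the mode score of non-aggregating sequences. Sequences with under 100 input reads were excluded. Reads came from Illumina sequencing of plasmid inserts from psi-negative yeast expressing Sup35N fused to peptides of 20 random codons, induced 24 hours with 100 μM copper sulfate and grown 7 days at 30°C without adenine and uracil.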

Row | Substance | amyloid nucleation score
1 | FLKGYHCVNDDSGNFFIVYI | 2.02 ± 0.11
2 | FLLGSYILWECNHGSHHMSG | 0.06 ± 0.23
3 | FLLREQQGLTEVMKEV | 0.481 ± 0.52
4 | FLNMQYRGLQ | 3.42 ± 0.11
5 | FLSGYGSCLELANVIRWLEN | 1.19 ± 0.69
6 | FLSRGSVWVVGSTFECHYEW | 0.205 ± 0.56
7 | FLVLND | 0.273 ± 0.2
8 | FLWDNAVSKVKFITFVWPHI | 0.86 ± 0.32
9 | FLYVNLL | 0.091 ± 0.19
10 | FMTFVYTGTSFSR | 0.523 ± 0.71
11 | FNAVATKSVNRGRSLLDVTQ | 0.62 ± 0.8
12 | FNDLYLGAYSRREDTNYVRL | 0.198 ± 0.56
13 | FNFMVNRLMVKVGLVSWRQY | 0.029 ± 1.6
14 | FNLNNGIR | inactive
15 | FNSYKGLIVQKYPSMTLN | 0.302 ± 1
16 | FNTALSDPYVTMWHYYTNYC | -0.8 ± 0.63
17 | FNYNLCMFMHSVELFLIKIE | 8.162 ± 0.075
18 | FPASNAQNLRLFQVGYGRPQ | 0.185 ± 1.1
19 | FPEWNSWYQRRVMAKGAHGY | 0.58 ± 1.1
20 | FPNLHLTELCLGRIYVRACY | inactive
21 | FPNVDNNV | inactive
22 | FPQLGLG | inactive

Row | Substance | amyloid nucleation score
23 | FPSLNNVNPSGFCSISSFRG | inactive
24 | FPYRGLLFTRLIPAAVGKGA | 0.171 ± 0.74
25 | FQGRLVFVDCDIRLVALKGS | 3.88 ± 0.067
26 | FQGVGDIGSVLHAMFLCYGS | 2.94 ± 0.15
27 | FQKYGQCSHYRVVDRKLQCS | 0.314 ± 1.4
28 | FQLGAHKLRAWLDRGYPEFA | -0.202 ± 0.64
29 | FQRGKLTASLSMVHSSRVCF | -1.6 ± 2.4
30 | FQSARR | 0.575 ± 0.36
31 | FQVLYNGVMCHYSCWCVWKV | 1.05 ± 0.19
32 | FRCLTVYCWF | 7.894 ± 0.044
33 | FRDFMMTFMFPRDMSSGAVG | 0.067 ± 0.4
34 | FRFAMRYFRGIYELRNENRR | inactive
35 | FRGRDSCGHH | 0.101 ± 0.44
36 | FRGWV | 1.62 ± 0.12
37 | FRGYHSSMSGNGDDNEKFGG | 0.24 ± 0.71
38 | FRHGKVWSLLKLGADAGREE | 0.098 ± 0.91
39 | FRHVQSMRACFLKSKYGATI | 0.195 ± 0.84
40 | FRICYCWFGGEKDHRNFQIG | 3.86 ± 0.06
41 | FRKFSCCVGSLVSSSYVLDS | 6.16 ± 0.064
42 | FRKKCGVNEIYLWGDSG | inactive
43 | FRLARGVVWCPGGISC | -0.536 ± 0.42
44 | FRLMVPGVCRRLANGLRMIW | -0.3 ± 0.35

Row | Substance | amyloid nucleation score
45 | FRSLSSGIFGACWWYMFYSM | 0.229 ± 0.6
46 | FRSNGQNLVTAISSMDVRAN | -2.14 ± 2.7
47 | FRVFIYPMWRSMWCFGYKEG | inactive
48 | FRVWSAFPYVGKSSPFGHSS | -0.89 ± 0.53
49 | FRWPSLLGNLLKLGVDTAD | -0.126 ± 0.38
50 | FSAKYMQGTQWSRLVHMLRT | 0.112 ± 0.48
51 | FSARTTVENAEDRSFDNQLV | 0.312 ± 0.4
52 | FSCSVDLKSSHMEVARNGYP | inactive
53 | FSFYLYGGSC | -1.47 ± 2.4
54 | FSGHFNARGFSDSWYVCMIG | -0.855 ± 1.6
55 | FSGLDYNVYVNLVPYFLCIN | 6.34 ± 0.077
56 | FSGVMLVEWLTSPRHLRRAL | 0.678 ± 1.1
57 | FSILILRHCVDLRYRVTSTM | 0.446 ± 0.6
58 | FSITLTPHRGSVMNIYTANV | 1.59 ± 0.17
59 | FSMVLSSTMDLRRELLWNSV | -0.299 ± 0.73
60 | FSREYL | -0.251 ± 0.3
61 | FSSCVNDFLGGRPPSKVLSF | 0.068 ± 0.48
62 | FSVARFGWFLVSALLQGWDR | -0.142 ± 0.55
63 | FSVMKCWPSPRPVNRFLIYA | -0.706 ± 0.46
64 | FSYNVVLRFSLRISSNYFAS | -1.12 ± 0.86
65 | FTAKSL | -0.324 ± 0.38
66 | FTFFRRW | inactive

Row | Substance | amyloid nucleation score
67 | FTFSTGLLFYMFLYGWVH | -0.62 ± 0.34
68 | FTFYYCIRY | 0.673 ± 0.47
69 | FTMYKCMCSMGRRNSAGGAS | -0.325 ± 0.98
70 | FTNKFCFL | 0.069 ± 0.35
71 | FTRQLWYMSICRYFQLPTFY | 1.95 ± 0.56
72 | FTVGYGSYGLT | 0.306 ± 0.54
73 | FTYRGYSDQLMVSLLSLLSE | 1.68 ± 0.48
74 | FTYSLFCAYI | 1.18 ± 0.66
75 | FVCSVFKSYCKSRVFFARAT | -0.025 ± 0.28
76 | FVGFDCYNSVSCCFTMRVSE | 4.02 ± 0.065
77 | FVGIQHRMSYWLCGRHAIVI | 0.965 ± 0.71
78 | FVGQRKLLLKEEAQGFLQCK | -0.707 ± 1.2
79 | FVGTKQWMARGLVNDVKPVH | -0.161 ± 0.45
80 | FVKVLDFYLMLSCHTICLFG | -0.832 ± 1.5
81 | FVLCFFLACGITRNGMPCMV | 1.26 ± 0.76
82 | FVLLNLPLVKRVCRIVGYWG | -0.327 ± 0.51
83 | FVLSIFYIWGKSPSRTYWMN | -0.322 ± 0.74
84 | FVNIADDRRVYLILSVHGDL | 6.575 ± 0.05
85 | FVPIF | -0.208 ± 0.72
86 | FVPLTVN | -0.068 ± 0.28

From the supplement of paper PMC12042874
